Data as given in article PMC10764318 (Nature Communications, 2024).

B1: WRAIR-5020 (antibody, V domains shown)
VH: QVQLQESGPGLVKPSETLSLTCAVSGASISSYWWGWIRQPPGKGLEWIGRISGSSGSTSYNPSLKSRVTISTDTSKNQFSLKLSSVTAADTAVYYCASRITIFGLLRSYWGQGVLVTVSS
VL: EIVMTQSPATLSLSPRERATLSCRASQSVSSNLAWYQQKPGQAPRLLIYYASNRATGIPDRFSGSGSGTDFTLTISSLEPEDVGLYYCQQESNWPWTFGQGTKVEIKR
notes: also called CoV_5020; source: Expi293F, transfected, purified (Protein A magnetic beads)
B2: WRAIR-5004 (antibody, V domains shown)
VH: QVQLVQSGAEIKQPGASVKLSCKASGYTFTTYYIHWVRQAPGQGLEWIGLISPYNGNRGYAQNFQGRVTITTDTSTSTGYMELSSLRSEDTAVYYCTRERVVAAAGYFDYWGQGVLVTVSS
VL: SYELTQPPSVSVSPGQTARITCGGDNIGSKNVQWYQQKPAQAPVLVIYDDSERPSGIPERFSGSNSGNTATLTISGVEAGDEAGYSCQVWDSSPDHYIFGAGTRLTVLG
notes: also called CoV_5004; source: Expi293F, transfected, purified (Protein A magnetic beads)
B3: WRAIR-5011 (antibody, V domains shown)
V domain 1: EVQLVQSGAEIKQPGASVKLSCKASGYTFTSYYIHWVRQAPGQGLEWIGLISPYNGNRAYAQNFQGRVTITTDTSTSTVYMELSSLKSEDTAVYYCAGEEYSNYGYFDLWGPGTPITISS
V domain 2: SYELTQPPSVSVSPGQTARITCGGDNIGSKNVQWYQQKPAQAPVLVIYDDSERPSGIPERFSGSNSGNTATLTISGVEAGDEADYYCQVWDSSGDHYIFGAGTRLTVLG
notes: also called CoV_5011; source: Expi293F, transfected, purified (Protein A magnetic beads)
B4: WRAIR-5021 (antibody, V domains shown)
VH: QVQLQESGPGLVKPSETLSLTCAVSGYSISSGYYWGWIRQPPGKGLEYIGYFSGTTGSTYYNPSLKSRVTISKDTSKNQFSLKLNSVTAADTAVYYCARQPPRFDVWGPGVLVTVST
VL: DIQMTQSPSSLSASVGDTVTITCRASQGISNFLNWYQQKPGKAPKLLIYDASRLESGVPSRFSGSGSGTEFTLTISSLQPEDFATYHCLQYDSDPFTFGPGTKLDIKR
notes: also called CoV_5021; source: Expi293F, transfected, purified (Protein A magnetic beads)
B5: WRAIR-5005 (antibody, V domains shown)
VH: QVQLQESGPGLVKPSETLSLTCAVSGSSVNSGYGWTWLRQPPGKGLEWIGYIGGGSGSTIYNPSLKSRLTISKDTSKNQFSLKLSSVTAADTAVYYCASLDYGTTYSWFDVWGPGVLVTVSS
VL: SYELTQPRSVSVSPGQMARITCGGDNIGSKSVQWYQHKPPQAPVLVIYADSERPSGIPERFSGSNSGNTATLTISGVEAGDEADYYCQVWDSSSDVLFGGGTRLTVLG
notes: also called CoV_5005; source: Expi293F, transfected, purified (Protein A magnetic beads)
B6: WRAIR-5001 (antibody, V domains shown)
VH: QVQLVQSGAEVKKPGASVKLSCKASGYTFTSYSINWVRQAPGQGLEWMGWVNPSNGVTVYAQKFQGRVTMTRDTSTSTAYMELSSLRFEDTAVYYCARERDQLVVYFDHWGQGALVTVSS
VL: SYELTQPRSVSVSPGQTARITCGGDNIASKNVHWYQQKLAQAPVLVIYYDSDRPSGIPERFSGSNSGNTATLTISGVEAGDEADYYCQVWDSYSGHHVLFGGGTRLTVLG
notes: also called CoV_5001; source: Expi293F, transfected, purified (Protein A magnetic beads)
B7: LY-CoV-555 (antibody, V domains shown)
VH: QVQLVQSGAEVKKPGSSVKVSCKASGGTFSNYAISWVRQAPGQGLEWMGRIIPILGIANYAQKFQGRVTITADKSTSTAYMELSSLRSEDTAVYYCARGYYEARHYYYYYAMDVWGQGTAVTVSS
VL: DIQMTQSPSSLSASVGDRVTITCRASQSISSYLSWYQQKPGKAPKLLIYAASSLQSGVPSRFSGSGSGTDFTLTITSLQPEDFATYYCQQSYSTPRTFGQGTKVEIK
notes: control antibody, IgG1; also called antigen site E (Class II); source: Expi293F, purified; expressed as human IgG1
B8: A19-61.1 (antibody, V domains shown)
VH: QVQLVESGGGVVQPGRSLRLSCAASGFTFSSYAFHWVRQAPGKGLEWVAVISYDGSNQYYADSVKGRFTISRDNSKNTLYLQMNSLRADDTAVYYCARDLAIAVAGTWHYYNGMDVWGQGTTVTVSS
VL: DIQMTQSPSSVSASVGDRVIITCRASQGISSWLAWYQQKPGKAPKVLIYDASSLQSGVPSRFSGSGYGTDFTLTISSLQPEDSATYYCQQAKSFPITFGQGTRLEIK
notes: control antibody, IgG1; also called antigen site F (Class III); source: Expi293F, purified; expressed as human IgG1
B9: CB6 (antibody, V domains shown)
VH: EVQLVESGGGLVQPGGSLRLSCAASGFTVSSNYMSWVRQAPGKGLEWVSVIYSGGSTFYADSVKGRFTISRDNSMNTLFLQMNSLRAEDTAVYYCARVLPMYGDYLDYWGQGTLVTVSS
VL: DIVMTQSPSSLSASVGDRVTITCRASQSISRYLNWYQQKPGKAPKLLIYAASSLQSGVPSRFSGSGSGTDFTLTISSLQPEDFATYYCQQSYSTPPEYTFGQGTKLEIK
notes: control antibody, IgG1; also called antigen site B (Class I); source: Expi293F, purified; expressed as human IgG1
B10: A19-46.1 (antibody, V domains shown)
VH: QVQLVESGGGVVQPGRSLRLSCAASGFTLSSYGMHWVRQAPGKGLEWVAVISYDGSNKYYVDSVKGRFTISRDNSKNTLYLQMNSLRAEDTAVYYCARGWAYWELLPDYYYGMDVWGQGTTVTVSS
VL: QTVVTQEPSFSVSPGGTVTLTCGLSSGSVSTAYFPSWYQQTPGQAPRTLIYGTNTRSSGVPDRFSGSILGNKAALTITGAQADDESDYYCVLYMGRGIVVFGGGTKLTVL
notes: control antibody, IgG1; also called antigen site D (Class II); source: Expi293F, purified; expressed as human IgG1

What follows are binders tested against T1, SARS-CoV-2 WA-1 RBD (SARS-CoV-2, UniProt P0DTC2 331-527) (assay: BLI). Conditions: both partners purified.
T1 construct: source: Expi293F, purified (Ni-NTA)
B1 was tested, and the Kd was 13 ± 0.1 nM, the koff was 0.00273 s⁻¹ and the kon was 210000 M⁻¹ s⁻¹. With B2 the Kd was 0.72 ± 0.015 nM, the koff was 0.000154 s⁻¹ and the kon was 199000 M⁻¹ s⁻¹. Binder B3 has a Kd of 0.69 ± 0.013 nM, a koff of 0.000147 s⁻¹ and a kon of 215000 M⁻¹ s⁻¹. For B4, the Kd was 1.09 ± 0.007 nM, the koff was 0.000353 s⁻¹ and the kon was 325000 M⁻¹ s⁻¹. With B5 the Kd was 1.14 ± 0.013 nM, the koff was 0.000238 s⁻¹ and the kon was 209000 M⁻¹ s⁻¹. B6 gave a koff of 0.000119 s⁻¹ and a kon of 209000 M⁻¹ s⁻¹.

These binders were tested against T2, SARS-CoV-2 RBD (318-514), Avi-tagged, biotinylated (SARS-CoV-2, UniProt P0DTC2, biotin (BirA biotinylation kit)) (assay: BLI). Conditions: both partners purified.
T2 construct: source: Expi293F, purified (Ni-NTA); biotinylated with the BirA kit
B7: binds. B8: binds. B9: binds. B10: binds.
